Source: the supplement of paper PMC7125110
± gives the standard error. Variants at the floor of the assay were thinned out.

B1: glmS ribozyme (parent)
chain: AUAAAAGCGCCAGAACUACAGAAAUGUAGUUGACGAGGAGGAGGUUUAUCGAAUUUUCGGCGGAUGCCUCCAAA

Variants of: B1
Assay: self-cleavage kobs at 2500 uM GlcN6P; higher = faster cleavage; RNA array
Conditions: with glucosamine-6-phosphate
In short: (§1)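 Glucosamine-6-phosphate (40 μM to 10 mM) in HEPES/KCl/Mg(OAc)2 buffer was flowed over sequenced MiSeq chips, and tiles were imaged over ~14 h. Barcoded ribozyme variants there had been transcribed in situ by E. coli RNA polymerase and were tracked through a hybridised Cy3 probe at 37 °C. One- or two-exponential decay fits to per-tile medians, normalised to baseline and to non-cleaving reference variants, gave kobs. kcat and KM came from weighted Michaelis–Menten fits across concentrations.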

| Variant | self-cleavage kobs at 2500 uM GlcN6P [s⁻¹] |
| --- | --- |
| G7U U55C C71A | < 1e-05 |
| A18U | 0.00664 ± 0.0014 |
| G26U C67U | 0.000381 ± 0.00017 |
| A6C C16G U45G G59U | < 1e-05 |
| G32C C50G C67G | 4.82e-05 ± 1.8e-05 |
| G29A G41U G62C | < 1e-05 |
| G9C A39G C50U C71A | < 1e-05 |
| G37U G44U U54A | < 1e-05 |
| G32U U55G U56G | 0.000148 ± 4.3e-05 |
| G29U U54A C58A | 0.000128 ± 3.8e-05 |
| G9A U31C A52U | < 1e-05 |
| G7A G13A C34U | < 1e-05 |
| C16A U31A A39G U57C G60U | < 1e-05 |
| G32A C50G C71U | 0.000168 ± 7.3e-05 |
| A39G G43U U54C | 6.53e-05 ± 2.4e-05 |
| G40A U45C A53C | 3.19e-05 ± 1.5e-05 |
| A14U U56A G63A | < 1e-05 |
| C34U G41A A52U | < 1e-05 |
| G13U A39U U56A | 0.000101 ± 2e-05 |

| Variant | self-cleavage kobs at 2500 uM GlcN6P [s⁻¹] |
| --- | --- |
| A42C U46A U56A | < 1e-05 |
| A33U G43U U54A G60A | < 1e-05 |
| A33U A48U G62U | < 1e-05 |
| A12G G44A C70A | < 1e-05 |
| C8G A12G G51U C58U C67A C68U | 0.000214 ± 7.9e-05 |
| G29U A39U C67G | 0.00033 ± 9.8e-05 |
| G13U A14C G32U C61G | < 1e-05 |
| G21U A64U | 0.000111 ± 2.9e-05 |
| A12G A33C G37C G40C | < 1e-05 |
| C8G G38A A48G U57G | < 1e-05 |
| U31A U49G | 0.000183 ± 3.1e-05 |
| A14G U55G U69A | 0.000475 ± 8.8e-05 |
| G13U U47G C67A | 7.8e-05 ± 1.6e-05 |
| G13U U47G C67U | 8.34e-05 ± 2.2e-05 |
| A14U U47G C68U | 0.000197 ± 3.4e-05 |
| C16G U55A C67U C71A | 8.06e-05 ± 2.9e-05 |
| G41C A48U A52C A53U | < 1e-05 |
| A42U U45C U55A | 6.42e-05 ± 1.1e-05 |
| G63C G66U C71A | < 1e-05 |

Variants of: B1
Assay: self-cleavage kobs at 10000 uM GlcN6P; higher = faster cleavage; RNA array
Conditions: with glucosamine-6-phosphate
In short: as §1

| Variant | self-cleavage kobs at 10000 uM GlcN6P [s⁻¹] |
| --- | --- |
| G32U U55G U56G | 0.000376 ± 8.4e-05 |
| G9A U31C A52U | < 1e-05 |
| U31A U49G | 0.000277 ± 4.5e-05 |
| A14G U55G U69A | 0.000104 ± 2.4e-05 |
| G13U U47G C67U | 4.31e-05 ± 2e-05 |
| C16G U55A C67U C71A | 3.71e-05 ± 1.3e-05 |
